Changes are numbered by the printed parent chain.
Key:
Assay in all cases: EMSA
Settings in all cases: EMSA: 20 pM dsRNA, 50 mM KCl, 10 mM Tris-HCl pH 8.0, 10% glycerol, 1 mM MgCl2, 0.5 mM DTT, on ice 30 min; native 6% gel, 0.5x TBE, 4 C
[1] = target: T1, ADR-1 dsRBD2 mutant (ds2) K584E;K585A;K588A (Caenorhabditis elegans) (UniProt Q9U3D6)
T1 sequence: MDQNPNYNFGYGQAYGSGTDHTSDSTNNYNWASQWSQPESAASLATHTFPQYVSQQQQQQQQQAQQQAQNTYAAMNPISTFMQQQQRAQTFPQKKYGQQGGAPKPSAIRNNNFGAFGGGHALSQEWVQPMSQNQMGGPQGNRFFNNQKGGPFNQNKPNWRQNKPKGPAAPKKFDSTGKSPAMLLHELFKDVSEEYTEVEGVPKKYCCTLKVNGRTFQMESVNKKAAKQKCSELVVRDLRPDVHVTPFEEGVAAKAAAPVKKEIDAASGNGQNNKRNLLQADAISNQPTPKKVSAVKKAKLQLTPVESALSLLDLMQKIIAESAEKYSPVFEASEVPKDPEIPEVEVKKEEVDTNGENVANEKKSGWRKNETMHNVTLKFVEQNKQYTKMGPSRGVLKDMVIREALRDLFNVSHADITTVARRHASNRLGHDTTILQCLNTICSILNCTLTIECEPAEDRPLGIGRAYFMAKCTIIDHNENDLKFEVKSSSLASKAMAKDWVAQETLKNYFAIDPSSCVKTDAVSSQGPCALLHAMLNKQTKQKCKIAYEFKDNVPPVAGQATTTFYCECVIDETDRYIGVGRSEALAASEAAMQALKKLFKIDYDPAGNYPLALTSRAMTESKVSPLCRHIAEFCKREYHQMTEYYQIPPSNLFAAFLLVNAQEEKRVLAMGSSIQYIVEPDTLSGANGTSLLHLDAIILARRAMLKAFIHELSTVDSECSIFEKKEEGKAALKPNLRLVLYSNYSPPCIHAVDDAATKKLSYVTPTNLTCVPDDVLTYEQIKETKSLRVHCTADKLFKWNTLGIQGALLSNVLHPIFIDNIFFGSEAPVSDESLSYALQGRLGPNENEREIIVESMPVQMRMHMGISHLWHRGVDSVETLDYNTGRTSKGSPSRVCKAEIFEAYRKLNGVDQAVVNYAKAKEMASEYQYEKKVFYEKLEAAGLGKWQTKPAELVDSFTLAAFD

[2] = target: T2, ADR-1 dsRBD1 mutant (ds1) K223E;K224A;K227A (Caenorhabditis elegans) (UniProt Q9U3D6)
T2 sequence: T1 sequence with K223E, K224A, K227A, E584K, A585K, A588K

[3] = target: ADR-1 WT;ADR-2 WT (Caenorhabditis elegans;Caenorhabditis elegans) (UniProt Q9U3D6+Q22618)
Sequence of ADR-1 WT;ADR-2 WT (Caenorhabditis elegans;Caenorhabditis elegans) (Q22618 whole entry, one chain of several): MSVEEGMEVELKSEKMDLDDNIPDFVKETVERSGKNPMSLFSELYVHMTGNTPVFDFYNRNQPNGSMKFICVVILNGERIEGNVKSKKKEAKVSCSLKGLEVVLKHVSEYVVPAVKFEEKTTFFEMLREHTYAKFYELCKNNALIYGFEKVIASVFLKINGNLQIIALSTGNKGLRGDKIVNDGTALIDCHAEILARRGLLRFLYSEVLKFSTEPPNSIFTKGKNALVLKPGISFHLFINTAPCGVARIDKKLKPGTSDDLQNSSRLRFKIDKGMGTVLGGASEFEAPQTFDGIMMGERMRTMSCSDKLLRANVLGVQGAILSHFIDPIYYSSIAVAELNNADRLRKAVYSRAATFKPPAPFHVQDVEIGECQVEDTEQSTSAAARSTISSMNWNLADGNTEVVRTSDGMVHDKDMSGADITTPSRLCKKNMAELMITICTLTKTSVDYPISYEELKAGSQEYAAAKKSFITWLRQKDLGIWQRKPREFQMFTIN

UUAUUAGGUCGGCAAAUAAUUAUUGACGUGUUUUGCCAAUUAACGAUUUUUUGUAAAUUUUAUAUGUGUCUCUUACAGUAAACCGAGAGUGUAUAAAAGCAUAUGAAUAUCAGUUGCUUUGGUCAUCUGAGUAGUAAUACGAUUCGAAAAAAUCGAAAAGUUUUUUUUCCAAUUUUUUGAGUUAGCCGUGAGAGUUG / CAACUCUUCACAGCUAACUCAAAAAAUCGCGAAAAGCAUUUUUCAAAAAAUUUUUGAUUUUUUAGAUUCUUAAUACUACGCAGGUAGCCAAAGUAGCUGAUAUUUUUAUGUUUUCAUACAUUCACAUUUUACUAUAAGACACACAUACAAAAUUUACAAAAAUUGUUAAUUGACAAAAUACGUCAAUAAUUAUUUGUCUACCUAAUAA [lam-2 3'UTR 200 bp dsRNA]
Kd [1]: 0.95 nM | Kd [2]: 1.47 nM | Kd [3]: 1.5 nM
